The text below walks through data of article PMC9352346, “Arl15 upregulates the TGFβ family signaling by promoting the assembly of the Smad-complex” (eLife, 2022).

This test has as its target T1, His-Smad4 (UniProt Q13485 1-552).
T1 construct: Smad4; also called purified His-tagged Smad4; source: E. coli BL21, purified (nickel-nitrilotriacetic acid agarose)
T1 sequence (looked up): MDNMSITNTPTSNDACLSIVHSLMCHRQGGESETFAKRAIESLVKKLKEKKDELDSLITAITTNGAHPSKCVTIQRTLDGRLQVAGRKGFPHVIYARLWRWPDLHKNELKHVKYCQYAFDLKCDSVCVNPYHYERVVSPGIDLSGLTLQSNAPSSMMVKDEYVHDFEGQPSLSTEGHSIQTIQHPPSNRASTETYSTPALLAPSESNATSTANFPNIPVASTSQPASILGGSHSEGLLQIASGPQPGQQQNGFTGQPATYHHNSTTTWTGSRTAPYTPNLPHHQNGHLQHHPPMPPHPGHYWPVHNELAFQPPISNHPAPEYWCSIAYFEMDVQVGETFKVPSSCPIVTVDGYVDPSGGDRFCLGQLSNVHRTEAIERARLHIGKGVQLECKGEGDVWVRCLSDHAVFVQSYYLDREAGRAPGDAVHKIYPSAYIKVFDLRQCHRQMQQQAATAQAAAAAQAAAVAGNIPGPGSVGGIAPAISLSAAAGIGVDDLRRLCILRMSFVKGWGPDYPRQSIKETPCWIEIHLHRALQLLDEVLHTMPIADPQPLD
In words: pull-down; bead-immobilized GST-Arl15-AL incubated with purified His-tagged Smads (His-Smad4, His-Smad2-SE, alone or together); immunoblotted against His-tag. The following applies: both partners purified.

B1: GST-Arl15-AL (natural protein, human, UniProt Q9NXU5 1-204, looked up)
chain: MSDLRITEAFLYMDYLCFRALCCKGPPPARPEYDLVCIGLTGSGKTSLLSKLCSESPDNVVSTTGFSIKAVPFQNAILNVKELGGLDNIRKYWSRYYQGSQGVIFVLDSASSEDDLEAARNELHSALQHPQLCTLPFLILANHQDKPAARSVQEIKKYFELEPLARGKRWILQPCSLDDMDALKDSFSQLINLLEEKDHEAVRM
notes: Arl15, human, A86L; also called bead-immobilized Arl15-AL; GST-Arl15-A86L; source: E. coli BL21, purified (Glutathione Sepharose 4B)
On to B1, for which the binding result is reported as “binds”.

B2: His-Smad2-SE (natural protein, UniProt Q15796 1-467, looked up)
chain: MSSILPFTPPVVKRLLGWKKSAGGSGGAGGGEQNGQEEKWCEKAVKSLVKKLKKTGRLDELEKAITTQNCNTKCVTIPSTCSEIWGLSTPNTIDQWDTTGLYSFSEQTRSLDGRLQVSHRKGLPHVIYCRLWRWPDLHSHHELKAIENCEYAFNLKKDEVCVNPYHYQRVETPVLPPVLVPRHTEILTELPPLDDYTHSIPENTNFPAGIEPQSNYIPETPPPGYISEDGETSDQQLNQSMDTGSPAELSPTTLSPVNHSLDLQPVTYSEPAFWCSIAYYELNQRVGETFHASQPSLTVDGFTDPSNSERFCLGLLSNVNRNATVEMTRRHIGRGVRLYYIGGEVFAECLSDSAIFVQSPNCNQRYGWHPATVCKIPPGCNLKIFNNQEFAALLAQSVNQGFEAVYQLTRMCTIRMSFVKGWGAEYRRQTVTSTPCWIELHLNGPLQWLDKVLTQMGSPSVRCSEME
notes: Smad2 with phosphomimetic mutations S465E/S467E; also called His-Smad2 with S465E/S467E mutations; source: E. coli BL21, purified (nickel-nitrilotriacetic acid agarose)
On to B2, for which the binding result is “binds”.
